The values below come from paper PMC3265493, “Inhibitory Potential of Prodomain of Plasmodium falciparum Protease Serine Repeat Antigen 5 for Asexual Blood Stages of Parasite” (PLoS ONE, 2012).

This experiment addresses T1, SERA5 catalytic domain (SERA5 C) (Plasmodium falciparum 3D7, UniProt Q9TY95 578-828).
T1 construct: Plasmodium falciparum 3D7 serine repeat antigen 5 (SERA5), PlasmoDB PFB0340c, 251-residue enzyme (catalytic) domain E578 to N828, amplified from cDNA; Cloned in pProExHTb between BamHI and XhoI with N-terminal hexahistidine tag; no tag removal is described; also called enzyme domain
T1 sequence: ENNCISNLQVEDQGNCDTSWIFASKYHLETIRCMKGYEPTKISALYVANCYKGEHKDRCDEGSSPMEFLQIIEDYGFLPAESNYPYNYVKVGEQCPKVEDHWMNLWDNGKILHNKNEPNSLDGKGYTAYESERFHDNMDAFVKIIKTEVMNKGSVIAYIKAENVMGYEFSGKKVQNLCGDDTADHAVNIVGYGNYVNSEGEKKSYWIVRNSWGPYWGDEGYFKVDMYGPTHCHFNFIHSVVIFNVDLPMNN
Description: CD spectroscopy; CD spectra of SERA5 C (5 uM) in PBS pH 7.4 alone and with 5 uM peptide (1:1 molar ratio), 25 C. Particulars: both partners purified.

B1: heptapeptide DNSDNMF (D560 to F566 of SERA5 sequence) (peptide)
peptide: DNSDNMF
notes: C-terminal region of the prodomain of Plasmodium falciparum serine repeat antigen 5 (SERA5), residues D560 to F566; Made on Rink amide resin, so the C-terminus is probably an amide; also called the heptapeptide; the peptide; source: synthetic peptide (solid phase, Fmoc chemistry, Rink Amide MHBA resin; RP-HPLC purified)
Turning to B1, the binding result is listed as “binds”.
